For series [1] the following is noted: cited from earlier work.
Another series deals with T1, G462D LeuA (Escherichia coli, UniProt P09151, G462D).
T1 construct: His tag (pQE9 vector, Ni-NTA purified) (N); TEV protease site (ENLYFQG, encoded by the forward primer) (N); made in house; host or cells: E. coli BL21(DE3) harboring pREP4
Description: measurement of LeuA activity (DTNB). It counts as biochemical, E. coli. The following applies: for kcat: substrate of G462D LeuA, 30° C., pH 8.0. The source says:
(§1) Protein Expression and Purification. Both gene fragments encoding wild type and F381L/V461A KIVD were amplified from plasmid pZE_LeuABCDKA6 using primers hiskivd_tevfwd and hiskivd_bamrev. After digestion with BamHI, the gene fragments were inserted into expression plasmid pQE9 (Qiagen) to yield pQE_hiskivd_wt and pQE_hiskivd_FL. The ADH6 gene fragment was amplified from yeast genomic DNA using primers hisadh_tevfwd and hisadh_bamrev, digested with BamHI and inserted into pQE9 to generate pQE_hisadh6. Similarly, genes encoding G462D and G462D/S139G LeuA were amplified from plasmid pZE_LeuABCDKA6 using primers hisleua_tevfwd and hisleua_bamrev. After digestion with BamHI, the PCR products were ligated into pQE9 to create pQE_hisleua_GD and pQE_hisleua_GS. The resulting expression plasmids pQE_hiskivd_wt, pQE_hiskivd_FL, pQE_hisadh6, pQE_hisleua_GD and pQE_hisleua_GS were transformed into E. coli strain BL21(DE3) harboring pREP4 (Qiagen). Cells were inoculated from an overnight pre-culture at 1/100 dilution and grown in 200 ml 2XYT rich medium containing 50 mg/L ampicillin and 25 mg/L kanamycin. At an OD600 of 0.6, recombinant proteins were expressed by induction of the cell cultures with 0.1 mM IPTG, followed by incubation at 30° C. overnight. Cell pellets were lysed by sonication in a buffer containing 250 mM NaCl, 2 mM DTT, 5 mM imidazole, and 50 mM Tris pH 9.0. By applying a stepwise gradient of imidazole (up to 250 mM), enzymes were purified from crude cell lysates through Ni-NTA column chromatography. The fractions of highest purity were pooled and buffer-exchanged using Amicon Ultra centrifugal filters (Millipore). Storage buffer 1 ([…], pH 8.0, 1 mM MgSO4, and 20% glycerol) was used for LeuA and ADH6, and storage buffer 2 ([…], pH 8.0, 1 mM MgSO4, 0.2 mM ThDP, and 20% glycerol) was used for KIVD. The concentrated protein solutions were aliquoted (100 μl) into PCR tubes and flash frozen at −80° C. for long term storage.
(§2) Measurement of LeuA activity. The assay mixture contained 100 mM KCl, 2 mM MgCl2, 1 mM acetyl-CoA, and 100 mM Tris pH 8.0 with a total volume of 100 μl. 100 nM G462D or G462D/S139G LeuA was reacted with 2-ketoisovalerate in a concentration range from 25 μM to 1 mM for 10 minutes at 30° C. While 4 μM G462D or 1.5 μM G462D/S139G LeuA was reacted with (S)-2-keto-3-methylvalerate in a concentration range from 50 μM to 2 mM for 30 minutes at 30° C. The reactions were stopped by adding 0.3 ml of ethanol. Then 0.2 ml of a fresh 1 mM solution of 5,5′-Dithio-Bis (2 Nitrobenzoic Acid) in 100 mM Tris buffer pH 8.0 was added, and the yellow color product was measured at 412 nm. The values obtained were corrected for unspecific hydrolysis by subtracting the absorbance of controlled samples without addition of 2-keto acids. A molar extinction coefficient of 13,600 M^−1 cm^−1 was used in the final calculations.

For another series, the target named is wild type KIVD (Lactococcus lactis, UniProt A0A0B8QZ66). The experiment in a line: coupled enzymatic assay of KIVD decarboxylation activity. It counts as biochemical. The note with it: for kcat: substrate of Wild type KIVD, 30° C., pH 6.8.
Source text: as §1
(§3) Enzymatic Assay of KIVD. Substrate 2-ketoisovalerate (KIV) was purchased from Sigma-Aldrich, and (S)-2-keto-4-methylhexanoate (KHV) was custom synthesized by AsisChem. Inc. Protein concentration was determined by measuring UV absorbance at 280 nm. The decarboxylation activity of KIVD was measured at 30° C. using a coupled enzymatic assay method. Excess ADH6 was used to reduce aldehyde into alcohol, and concomitantly, cofactor NADPH was oxidized to NADP+. The assay mixture contained 0.2 mM NADPH, 0.1 μM ADH6 and 0.1-20 mM 2-keto acids in assay buffer (50 mM potassium phosphate buffer, pH 6.8, 1 mM MgSO4, 0.5 mM ThDP) with a total volume of 0.2 mL. The reactions were started by adding 2 μl KIVD (final concentration: for KIV, 20 nM wt KIVD, 200 nM F381L/V461A KIVD; for KHV, 50 nM both), and the consumption of NADPH was monitored at 340 nm (extinction coefficient, 6.22 mM^−1 cm^−1). Kinetic parameters (kcat and Km) were determined by fitting initial velocity data to the Michaelis-Menten equation using Origin.

Another series deals with F381L/V461A KIVD (Lactococcus lactis, UniProt A0A0B8QZ66, form not given/V461A). The series is described as above. It counts as biochemical. The following applies: for kcat: substrate of V461A/F381L KIVD, 30° C., pH 6.8.
Source text: as §1, §3

A further series addresses T2, G462D/S139G LeuA (Escherichia coli, UniProt P09151, G462D/S139G).
T2 construct: His tag (pQE9 vector, Ni-NTA purified) (N); TEV protease site (ENLYFQG, encoded by the forward primer) (N); made in house; host or cells: E. coli BL21(DE3) harboring pREP4
The experiment in a line: measurement of LeuA activity (DTNB). It counts as biochemical, E. coli.
Source text: as §1, §2

A further series concerns CC[C@H](C)C(=O)C(=O)O. The experiment in a line: measurement of LeuA activity (DTNB). It counts as biochemical, E. coli. The following applies: 30° C., pH 8.0.
Source text: as §1, §2

A further series relates to CC(C)C(=O)C(=O)O. The experiment in a line: measurement of LeuA activity (DTNB). The note with it: 30° C., pH 8.0. It counts as biochemical, E. coli.
Source text: as §1, §2

Substrate in series [2]: CC(C)C(=O)C(=O)O
Description: coupled enzymatic assay of KIVD decarboxylation activity. It counts as biochemical, Lactococcus lactis. The note with it: other: substrate of Wild type KIVD, 30° C., pH 6.8.
Source text: as §1, §3

Substrate in series [3]: CC[C@H](C)CC(=O)C(=O)O
The description is as above. It counts as biochemical, Lactococcus lactis. The following applies: other: substrate of Wild type KIVD, 30° C., pH 6.8.
Source text: as §1, §3

The mark [4] stands for this setting: other: substrate of G462D/S139G LeuA.

Converted amounts (≈) assume the structure as drawn.

T1 sequence (P09151 whole entry G462D): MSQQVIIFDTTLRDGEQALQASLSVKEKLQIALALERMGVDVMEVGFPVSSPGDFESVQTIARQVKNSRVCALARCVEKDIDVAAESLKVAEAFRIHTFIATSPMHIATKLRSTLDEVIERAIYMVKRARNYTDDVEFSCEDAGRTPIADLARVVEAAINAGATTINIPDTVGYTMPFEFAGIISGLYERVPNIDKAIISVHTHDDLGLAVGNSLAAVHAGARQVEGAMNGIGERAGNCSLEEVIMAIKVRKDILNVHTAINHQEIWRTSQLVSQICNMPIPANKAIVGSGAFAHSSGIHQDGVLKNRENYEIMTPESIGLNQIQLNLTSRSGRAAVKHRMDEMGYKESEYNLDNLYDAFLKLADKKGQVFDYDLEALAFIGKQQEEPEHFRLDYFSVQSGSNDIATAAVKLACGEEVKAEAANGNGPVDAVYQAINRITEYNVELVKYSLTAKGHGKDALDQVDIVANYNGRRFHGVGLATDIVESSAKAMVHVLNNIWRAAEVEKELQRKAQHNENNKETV
T2 sequence (P09151 whole entry S139G/G462D): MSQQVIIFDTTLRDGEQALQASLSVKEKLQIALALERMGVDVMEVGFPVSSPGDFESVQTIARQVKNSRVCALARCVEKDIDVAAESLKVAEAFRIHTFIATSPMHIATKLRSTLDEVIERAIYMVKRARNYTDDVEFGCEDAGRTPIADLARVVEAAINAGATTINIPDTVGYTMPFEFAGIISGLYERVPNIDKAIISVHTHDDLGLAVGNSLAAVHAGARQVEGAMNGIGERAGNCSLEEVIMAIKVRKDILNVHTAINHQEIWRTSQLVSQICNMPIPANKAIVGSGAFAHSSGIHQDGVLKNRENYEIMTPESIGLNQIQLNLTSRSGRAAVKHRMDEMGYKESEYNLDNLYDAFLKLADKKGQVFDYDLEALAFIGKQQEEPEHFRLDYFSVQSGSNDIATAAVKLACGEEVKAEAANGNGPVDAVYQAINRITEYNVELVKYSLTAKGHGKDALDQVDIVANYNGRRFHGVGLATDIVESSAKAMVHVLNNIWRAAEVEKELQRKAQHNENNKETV

In the case of `CCCCCO` [1-Pentanol], the water solubility in series [1] was 23 mg/mL (≈ 261 mM).
Regarding `CCCCCCCO` [1-heptanol], the water solubility in series [1] was 1.2 mg/mL (≈ 10.3 mM).
Consider `CC(C)C(=O)C(=O)O` [2-Ketoisovalerate], for which the kcat (commonly the maximal rate divided by the concentration of active sites) at G462D LeuA is 6.0 s⁻¹; at wild type KIVD it was 38.3 s⁻¹; at F381L/V461A KIVD it was 2.7 ± 0.6 s⁻¹; at F381L/V461A KIVD (listed as 2-ketoisovalerate) it was 2.7 s⁻¹.
On to `CC[C@H](C)C(=O)C(=O)O` [(S)-2-keto-3-methylvalerate], for which, on G462D LeuA (G462D LeuA), the “kcat, fold less than that for 2-ketoisovalerate” value was 333 fold. Besides, the turnover number (kcat) on G462D LeuA came out at 0.018 s⁻¹; on G462D/S139G LeuA (substrate of G462D/S139G LeuA, 30° C., pH 8.0), 0.12 s⁻¹. The “increase of kcat by the S139G mutation” value on G462D/S139G LeuA (G462D/S139G versus G462D LeuA) is 7 fold.
With `CC[C@H](C)CC(=O)C(=O)O` [(S)-2-keto-4-methylhexanoate], the figures for the kcat at wild type KIVD, on F381L/V461A KIVD and at F381L/V461A KIVD (listed as 2-keto-4-methylhexanoate) were 10.8 s⁻¹, 3.0 ± 0.1 s⁻¹ and 3.0 s⁻¹, respectively. For the same molecule, the “specificity constant kcat/Km relative to that towards 2-ketoisovalerate” value on wild type KIVD (wild type KIVD) stood at 4 fold; at F381L/V461A KIVD (F381L/V461A KIVD), 40 fold.
As for “G462D LeuA (Escherichia coli K-12; G462D)”, in the series on CC[C@H](C)C(=O)C(=O)O (other: substrate of G462D LeuA), the Km (commonly the concentration of substrate that gives half-maximal velocity) was determined as 55 µM; the kcat stood at 0.018 ± 0.001 s⁻¹; the kcat/Km (in general, the turnover number divided by the Michaelis constant) turned out to be 330 M⁻¹ s⁻¹. In the series on CC(C)C(=O)C(=O)O (other: substrate of G462D LeuA), the Michaelis constant (Km) stood at 182 µM, the kcat is 6.0 ± 0.3 s⁻¹ and the kcat/Km was found to be 33000 M⁻¹ s⁻¹.
As for “G462D/S139G LeuA (Escherichia coli K-12; G462D/S139G)”, in the series with CC[C@H](C)C(=O)C(=O)O (setting [4]), the Km turned out to be 144 ± 13 µM, the catalytic constant (kcat) worked out at 0.12 ± 0.02 s⁻¹ and the kcat/Km worked out at 830 M⁻¹ s⁻¹. In addition, in the series with CC(C)C(=O)C(=O)O (setting [4]), the Km was 104 ± 5 µM, the kcat was found to be 2.1 ± 0.1 s⁻¹ and the catalytic efficiency (kcat/Km) was found to be 20000 M⁻¹ s⁻¹.

B1: wild type KIVD (Lactococcus lactis subsp. lactis) (protein)
chain: MYTVGDYLLDRLHELGIEEIFGVPGDYNLQFLDQIISRKDMKWVGNANELNASYMADGYARTKKAAAFLTTFGVGELSAVNGLAGSYAENLPVVEIVGSPTSKVQNEGKFVHHTLADGDFKHFMKMHEPVTAARTLLTAENATVEIDRVLSALLKERKPVYINLPVDVAAAKAEKPSLPLKKENSTSNTSDQEILNKIQESLKNAKKPIVITGHEIISFGLEKTVSQFISKTKLPITTLNFGKSSVDEALPSFLGIYNGKLSEPNLKEFVESADFILMLGVKLTDSSTGAFTHHLNENKMISLNIDEGKIFNESIQNFDFESLISSLLDLSEIEYKGKYIDKKQEDFVPSNALLSQDRLWQAVENLTQSNETIVAEQGTSFFGASSIFLKPKSHFIGQPLWGSIGYTFPAALGSQIADKESRHLLFIGDGSLQLTVQELGLAIREKINPICFIINNDGYTVEREIHGPNQSYNDIPMWNYSKLPESFGATEERVVSKIVRTENEFVSVMKEAQADPNRMYWIELILAKEDAPKVLKKMGKLFAEQNKS
In the case of B1, in [2], the Michaelis constant (Km) was found to be 2200 µM, the turnover number (kcat) was determined as 38.3 ± 9.8 s⁻¹ and the specificity constant (kcat/Km) is 17000 M⁻¹ s⁻¹. Moreover, in series [3], the Km amounted to 140 µM, the catalytic constant (kcat) stood at 10.8 ± 0.3 s⁻¹ and the kcat/Km is 77000 M⁻¹ s⁻¹.

The values above are taken from patent US8298798B2, “Production of C5-C8 alcohols using evolved enzymes and metabolically engineered microorganisms” (The Regents of the University of California, priority 2008, dated 2012).
